Reference: IntAct's records for PubMed 31515488

B1: Transmembrane 4 L6 family member 4 (Homo sapiens), P48230 (parent)
chain: MCTGGCARCLGGTLIPLAFFGFLANILLFFPGGKVIDDNDHLSQEIWFFGGILGSGVLMIFPALVFLGLKNNDCCGCCGNEGCGKRFAMFTSTIFAVVGFLGAGYSFIISAISINKGPKCLMANSTWGYPFHDGDYLNDEALWNKCREPLNVVPWNLTLFSILLVVGGIQMVLCAIQVVNGLLGTLCGDCQCCGCCGGDGPV
partner: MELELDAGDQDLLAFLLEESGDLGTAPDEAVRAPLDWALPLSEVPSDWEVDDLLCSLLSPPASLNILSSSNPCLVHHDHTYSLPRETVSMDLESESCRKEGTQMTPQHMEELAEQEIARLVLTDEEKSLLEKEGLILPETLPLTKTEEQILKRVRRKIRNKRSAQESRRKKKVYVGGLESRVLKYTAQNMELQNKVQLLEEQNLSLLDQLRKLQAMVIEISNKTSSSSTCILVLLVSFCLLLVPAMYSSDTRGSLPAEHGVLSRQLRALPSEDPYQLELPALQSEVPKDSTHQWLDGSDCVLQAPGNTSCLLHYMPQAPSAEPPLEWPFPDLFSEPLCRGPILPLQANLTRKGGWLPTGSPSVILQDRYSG
B2: Phenazine biosynthesis-like domain-containing protein (Homo sapiens), P30039 (parent)
chain: MKLPIFIADAFTARAFRGNPAAVCLLENELDEDMHQKIAREMNLSETAFIRKLHPTDNFAQSSCFGLRWFTPASEVPLCGHATLASAAVLFHKIKNMNSTLTFVTLSGELRARRAEDGIVLDLPLYPAHPQDFHEVEDLIKTAIGNTLVQDICYSPDTQKLLVRLSDVYNRSFLENLKVNTENLLQVENTGKVKGLILTLKGEPGGQTQAFDFYSRYFAPWVGVAEDPVTGSAHAVLSSYWSQHLGKKEMHAFQCSHRGGELGISLRPDGRVDIRGGAAVVLEGTLTA
partner: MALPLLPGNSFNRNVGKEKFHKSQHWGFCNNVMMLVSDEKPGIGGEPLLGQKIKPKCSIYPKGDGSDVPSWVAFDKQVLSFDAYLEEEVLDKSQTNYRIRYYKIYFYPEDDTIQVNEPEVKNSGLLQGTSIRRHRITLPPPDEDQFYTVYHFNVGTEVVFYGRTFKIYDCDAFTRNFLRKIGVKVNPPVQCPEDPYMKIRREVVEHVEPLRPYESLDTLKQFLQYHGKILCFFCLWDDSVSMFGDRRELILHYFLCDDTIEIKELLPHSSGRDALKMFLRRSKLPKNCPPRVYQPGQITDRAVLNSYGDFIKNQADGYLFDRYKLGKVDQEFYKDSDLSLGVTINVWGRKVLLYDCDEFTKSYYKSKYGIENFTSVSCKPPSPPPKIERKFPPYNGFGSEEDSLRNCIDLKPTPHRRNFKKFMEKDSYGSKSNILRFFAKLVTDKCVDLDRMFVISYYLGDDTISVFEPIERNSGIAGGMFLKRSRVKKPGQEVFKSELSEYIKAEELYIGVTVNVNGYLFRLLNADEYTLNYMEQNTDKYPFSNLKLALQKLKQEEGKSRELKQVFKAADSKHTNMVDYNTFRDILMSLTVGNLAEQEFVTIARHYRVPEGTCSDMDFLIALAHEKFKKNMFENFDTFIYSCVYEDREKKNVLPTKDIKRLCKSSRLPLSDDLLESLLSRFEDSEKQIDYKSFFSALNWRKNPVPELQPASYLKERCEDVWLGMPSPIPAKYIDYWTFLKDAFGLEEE
B3: Huntingtin-interacting protein 1 (Homo sapiens), O00291 (parent)
chain: MDRMASSMKQVPNPLPKVLSRRGVGAGLEAAERESFERTQTVSINKAINTQEVAVKEKHARTCILGTHHEKGAQTFWSVVNRLPLSSNAVLCWKFCHVFHKLLRDGHPNVLKDSLRYRNELSDMSRMWGHLSEGYGQLCSIYLKLLRTKMEYHTKNPRFPGNLQMSDRQLDEAGESDVNNFFQLTVEMFDYLECELNLFQTVFNSLDMSRSVSVTAAGQCRLAPLIQVILDCSHLYDYTVKLLFKLHSCLPADTLQGHRDRFMEQFTKLKDLFYRSSNLQYFKRLIQIPQLPENPPNFLRASALSEHISPVVVIPAEASSPDSEPVLEKDDLMDMDASQQNLFDNKFDDIFGSSFSSDPFNFNSQNGVNKDEKDHLIERLYREISGLKAQLENMKTESQRVVLQLKGHVSELEADLAEQQHLRQQAADDCEFLRAELDELRRQREDTEKAQRSLSEIERKAQANEQRYSKLKEKYSELVQNHADLLRKNAEVTKQVSMARQAQVDLEREKKELEDSLERISDQGQRKTQEQLEVLESLKQELATSQRELQVLQGSLETSAQSEANWAAEFAELEKERDSLVSGAAHREEELSALRKELQDTQLKLASTEESMCQLAKDQRKMLLVGSRKAAEQVIQDALNQLEEPPLISCAGSADHLLSTVTSISSCIEQLEKSWSQYLACPEDISGLLHSITLLAHLTSDAIAHGATTCLRAPPEPADSLTEACKQYGRETLAYLASLEEEGSLENADSTAMRNCLSKIKAIGEELLPRGLDIKQEELGDLVDKEMAATSAAIETATARIEEMLSKSRAGDTGVKLEVNERILGCCTSLMQAIQVLIVASKDLQREIVESGRGTASPKEFYAKNSRWTEGLISASKAVGWGATVMVDAADLVVQGRGKFEELMVCSHEIAASTAQLVAASKVKADKDSPNLAQLQQASRGVNQATAGVVASTISGKSQIEETDNMDFSSMTLTQIKRQEMDSQVRVLELENELQKERQKLGELRKKHYELAGVAEGWEEGTEASPPTLQEVVTEKE
partner: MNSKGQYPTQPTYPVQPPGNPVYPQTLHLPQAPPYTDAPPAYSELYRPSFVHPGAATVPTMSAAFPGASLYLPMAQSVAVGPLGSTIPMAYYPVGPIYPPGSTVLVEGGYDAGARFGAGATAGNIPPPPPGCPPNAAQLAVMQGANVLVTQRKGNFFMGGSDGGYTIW
B4: Centrosomal protein of 55 kDa (Homo sapiens), Q53EZ4 (parent)
chain: MSSRSTKDLIKSKWGSKPSNSKSETTLEKLKGEIAHLKTSVDEITSGKGKLTDKERHRLLEKIRVLEAEKEKNAYQLTEKDKEIQRLRDQLKARYSTTTLLEQLEETTREGERREQVLKALSEEKDVLKQQLSAATSRIAELESKTNTLRLSQTVAPNCFNSSINNIHEMEIQLKDALEKNQQWLVYDQQREVYVKGLLAKIFELEKKTETAAHSLPQQTKKPESEGYLQEEKQKCYNDLLASAKKDLEVERQTITQLSFELSEFRRKYEETQKEVHNLNQLLYSQRRADVQHLEDDRHKTEKIQKLREENDIARGKLEEEKKRSEELLSQVQFLYTSLLKQQEEQTRVALLEQQMQACTLDFENEKLDRQHVQHQLHVILKELRKARNQITQLESLKQLHEFAITEPLVTFQGETENREKVAASPKSPTAALNESLVECPKCNIQYPATEHRDLLVHVEYCSK
partner: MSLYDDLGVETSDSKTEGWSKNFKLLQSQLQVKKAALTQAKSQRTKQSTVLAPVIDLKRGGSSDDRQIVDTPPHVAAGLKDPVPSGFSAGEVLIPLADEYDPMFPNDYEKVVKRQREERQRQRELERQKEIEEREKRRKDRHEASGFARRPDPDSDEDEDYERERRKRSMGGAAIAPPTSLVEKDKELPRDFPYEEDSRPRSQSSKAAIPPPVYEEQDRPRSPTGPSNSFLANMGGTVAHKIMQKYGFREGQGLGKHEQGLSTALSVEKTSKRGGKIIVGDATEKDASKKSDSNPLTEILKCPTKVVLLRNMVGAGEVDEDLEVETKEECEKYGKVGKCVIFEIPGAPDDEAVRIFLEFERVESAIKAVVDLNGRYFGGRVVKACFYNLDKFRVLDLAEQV

Variants of: B1
Conditions: with creb3_human CREB3, O43889

| Variant | effect of a mutation on the interaction |
| --- | --- |
| A63V | with no effect |

Variants of: B2
Conditions: with efhc2_human EFHC2, Q5JST6

| Variant | effect of a mutation on the interaction |
| --- | --- |
| A235T | disrupting interaction strength |
| Y154C | disrupting interaction strength |
| H257R | disrupting interaction strength |

Variants of: B3
Conditions: with dazp2_human DAZAP2, Q15038

| Variant | effect of a mutation on the interaction |
| --- | --- |
| M263K | with no effect |

Variants of: B4
Conditions: with spf45_human RBM17, Q96I25

| Variant | effect of a mutation on the interaction |
| --- | --- |
| R348K | with no effect |
